Consider 27 sequences from the supplement of paper PMC9170038.

For the data set, the system named is MS2 coat protein. Briefly: apparent KD of MS2 coat protein; designed switch direction (-1 OFF switch, 1 ON switch): 1; higher = weaker reporter binding. A digest of the protocol:
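Designed RNA switches with common flanks were transcribed on Illumina chips by stalled E. coli RNA polymerase and titrated with SNAP-549-labelled MS2 coat protein, from 0.7 or 1.5 nM doubling to 3 µM, in Tris-HCl pH 7.5 buffer with KCl, MgCl2, BSA, DTT, tRNA and Tween-20. Steps lasted 0.8–1.5 h (lowest) to 10–20 min (highest). Titrations ran without input, with 200 uM small-molecule ligand, or with an oligonucleotide input. Normalised cluster fluorescence was curve-fitted, and apparent KD is the per-design median over clusters.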

Where [1] appears, read: input ligand: microRNA oligo, concentration not stated.
[2] abbreviates: Eterna round: R95, input ligand: FMN 200 uM.
The mark [3] stands for this setting: Eterna round: R95, input ligand: microRNA oligo, concentration not stated.
Setting [4] is: Eterna round: R95, input ligand: none.

On to “CCGUAGAUGGAAGGAUAUGGAGCCUUAUUGGCUCCAGAAGGUUCAAAACAUGAGGAUCACCCAUGUACGGCGGUCAAUAGACCG [Eli NG1ss - 82] (Eterna round: R96, puzzle: Same State NG 1)”, for which the “apparent KD of MS2 coat protein” value amounted to 111 nM (input ligand: FMN 200 uM), 226 nM under setting [1] and 245 nM (input ligand: none).
In the same order, the values of “CCGUAGAUGGAAGGAUAUGGAGCCUUAUUGGCUCCAGAAGGUUCAAUACAUGAGGAUCACCCAUGUUCGGCGGUCAAUAGACCG [Eli NG1ss - 81] (Eterna round: R96, puzzle: Same State NG 1)” are 26.9 nM, 32 nM and 66.6 nM.
Regarding “CCUGCAAUUAACGCCUACAUGAGGAUCACCCAUGUAUGUAGGCAGGAUAUCGUUUGCUUUGCAAACGAGAAGGGCUGUAGUAGC [salish99_SSNG3_R04_002] (Eterna round: R96, puzzle: Same State NG 3)”, the “apparent KD of MS2 coat protein” value was determined as 18.7 nM (input ligand: FMN 200 uM), 15.4 nM under setting [1] and 18.9 nM (input ligand: none).
For the sequence “CGAUGAAACAAAGGAAGAAGAGUUGAAGUACAUGAGGAUCACCCAUGUCAGAGCUUUUUGCUCGUCAUGAACAGGAA [JR_SHM208a_Sub004] (puzzle: Sensor for hsa-mir-208a)”, the “apparent KD of MS2 coat protein” value by setting is: under setting [2], 35.9 nM; under setting [3], 24.4 nM; under setting [4], 54.9 nM.
Regarding “CGGCGCUGUUGAGAGGAUAUGCGGUGAUGGACAUGAGGAUCACCCAUGUUAGCGAUAGCAUUACGGUAGAAGGCUCUACAGCUGU [Soteed Omei mod 11] (puzzle: Same State 2)”, under setting [3], the “apparent KD of MS2 coat protein” value worked out at 21.7 nM.
Regarding “CGUCCGGCCUGUGCUGGCCGGUUGCUUGUACAUGAGGAUCACCCAUGUUCUUGUGCAGGCUUUUUGCUCGUCUUGUG [salish99_mir208a_018] (puzzle: Sensor for hsa-mir-208a)”, the “apparent KD of MS2 coat protein” value runs as follows: under setting [2], 212 nM; under setting [3], 25 nM; under setting [4], 265 nM.
As for “CGUCGUUUGAUAGGAUAUCGCUUUACAUGAGGAUCGCCCAUGUUUACCACGCUGGUUUUUCUUUCCGAGAAGGAUUCUGAUGUU [salish99_SSNG02_r04_027] (Eterna round: R96, puzzle: Same State NG 2)”, the “apparent KD of MS2 coat protein” value (input ligand: FMN 200 uM) was 28.4 nM, the “apparent KD of MS2 coat protein” value under setting [1] is 10.5 nM and the “apparent KD of MS2 coat protein” value (input ligand: none) was determined as 4.85 nM.
In the same order, the values of “CGUCGUUUGUUAGGAUAUCGCUAUACAUGAGGAUCACCCAUGUUUACCACGCUGGUUUUUCAUACCGAGAAGGAUUCUGAUGUU [salish99_SSNG02_r04_019] (Eterna round: R96, puzzle: Same State NG 2)” are 42.5 nM, 31.6 nM and 37.8 nM.
As to “CUAAAAGGAUGAGGAUAUGCAGAGGAUCACCCUGUAGAAGGCAACAGAUGAGGAUAUGCAGAGGAUCACCCUGUAGAAGGCAAC [pwkr ssNG DX.2] (Eterna round: R96, puzzle: Same State NG 1)”, the “apparent KD of MS2 coat protein” value (input ligand: FMN 200 uM) was determined as 233 nM, the “apparent KD of MS2 coat protein” value under setting [1] came to 56.8 nM and the “apparent KD of MS2 coat protein” value (input ligand: none) is 94.1 nM.
As for “CUAACAACAGGUUGCAGUGCUCGUCUCUAACAUGAGGAUCACCCAUGUAAUAGCCCGGUGGAAGCGCUCGGGUCACC [Tearor] (puzzle: Sensor for hsa-mir-208a)”, the “apparent KD of MS2 coat protein” value is, setting by setting: under setting [2], 28.3 nM; under setting [3], 34.5 nM; under setting [4], 30.9 nM.
With “CUAUUAGGAUGAGGAUAUGCAGAGGAUCACCCUGUAGAAGGCAAUAGAUGAGGAUAUGCAGAGGAUCACCCUGUAGAAGGCAAC [pwkr ssNG DX.3] (Eterna round: R96, puzzle: Same State NG 1)”, the “apparent KD of MS2 coat protein” value is, setting by setting: (input ligand: FMN 200 uM) 423 nM; under setting [1], 98.9 nM; (input ligand: none) 177 nM.
Regarding “CUCCAUUGGGUAGGAUAUCUAGGAUAUGGGAAAGACUAAGUCUGUAGGUCACCUAACCCAGAUGGAGAGAAGGACCCAACUCUC [pwkr ssNG2 2FMN + F9.41] (Eterna round: R96, puzzle: Same State NG 2)”, the “apparent KD of MS2 coat protein” value runs as follows: (input ligand: FMN 200 uM) 8.17 nM; under setting [1], 2.07 nM; (input ligand: none) 12.3 nM.
For the sequence “CUCCGGAAGCGAGGAUAUGCAGAGGAUCACCCUGCAGAAGGCGCCCUUGCGAGGAUAUGCAGAGGAUCACCCUGCAGAAGGCGC [pwkr ssNG DX.30] (Eterna round: R96, puzzle: Same State NG 1)”, the “apparent KD of MS2 coat protein” value (input ligand: FMN 200 uM) stood at 16.2 nM, the “apparent KD of MS2 coat protein” value under setting [1] was 15.4 nM and the “apparent KD of MS2 coat protein” value (input ligand: none) was determined as 28 nM.
For “CUGAGCAAGCAAGGAUAUCACGUCGUUUAGACGUGAGAAGGUGCUCCUUACAUGAGGAUCACCCAUGUAUAACAUGAAGCUCAG [SSNG1/10-A3] (Eterna round: R96, puzzle: Same State NG 1)” the same measures were 150 nM, 273 nM and 870 nM.
Regarding “CUGAGCAAUCAAGGAUAUCACGUCGAUUAGACGUGAGAAGGUGAUCAUUACAUGAGGAUCACCCAUGUAUUACAUGGAGCUCAG [Brourd's SSNG1/1-A2 mod 2] (Eterna round: R96, puzzle: Same State NG 1)”, the “apparent KD of MS2 coat protein” value under setting [1] turned out to be 833 nM.
As to “CUGAGCAAUCUAGGAUAUCACGUCGAAUAGACGUGAGAAGGAGAUCAUAACAUGAGGAUCACCCAUGUAUUACAUGAAGCUCAG [SSNG1/7-A1] (Eterna round: R96, puzzle: Same State NG 1)”, the “apparent KD of MS2 coat protein” value runs as follows: (input ligand: FMN 200 uM) 13.4 nM; under setting [1], 11.6 nM; (input ligand: none) 17.9 nM.
For the sequence “GAAAAGGCAACGCAGGAUAUGAAAGGUGAAACAUGAGGAUCACCCAUGUGCUACCUUCCGAUAAAUCAGAAGGGCGACGCCUAAA [Usbemaus] (puzzle: Same State 2)”, the “apparent KD of MS2 coat protein” value reads like this: under setting [2], 9.33 nM; under setting [3], 8.96 nM; under setting [4], 11.1 nM.
“GACAAUCUAUCUGAGGAUAUCAUGAAUAAAACAUGAGGAUCACCCAUGUGCAGGAGAACUGCAAAUGAGAAGGCAGAUAGAUUGG [Mat - Same State 2 - Mod - D10] (puzzle: Same State 2)”: the “apparent KD of MS2 coat protein” value runs as follows: under setting [2], 10 nM; under setting [3], 37.2 nM; under setting [4], 26.9 nM.
Consider “GACAAUCUAUCUGAGGAUAUCAUGAAUAAAACAUGAGGAUCACCCAUGUGCAGGAUAACUGCAAAUGAGAAGGCAGAUAGAUUGU [Mat - Same State 2 - Mod - D7] (puzzle: Same State 2)”, for which the “apparent KD of MS2 coat protein” value turned out to be 12.3 nM under setting [2], 24 nM under setting [3] and 27.7 nM under setting [4].
With “GACAGGCAGGCUUUUUCCUCGUAGUGUAAACAUGAGGAUCACCCAUGUGCUCGCCCUGGAUCUUUGGAUCGCAGGAA [Tibeon] (puzzle: Sensor for hsa-mir-208a)”, the “apparent KD of MS2 coat protein” value is, setting by setting: under setting [2], 353 nM; under setting [3], 124 nM; under setting [4], 407 nM.
Regarding “GACCGCGAGGAAGGAUAUGGAGCCUUAUUGGCUCCAGAAGGUCCAUAAAGGACAUGAGGAUCACCCAUGUGGUGAGAAGCGGUC [Fiskers NG1ss - 27] (Eterna round: R96, puzzle: Same State NG 1)”, under setting [1], the “apparent KD of MS2 coat protein” value is 788 nM.
“GACCGCGAGGAAGGAUAUGGAGCCUUAUUGGCUCCAGAAGGUCCAUAAAGGACAUGAGGAUCACCCAUGUGGUGUGAAGCGGUC [Fiskers NG1ss - 18] (Eterna round: R96, puzzle: Same State NG 1)”: the “apparent KD of MS2 coat protein” value stood at 65.5 nM (input ligand: FMN 200 uM), 407 nM under setting [1] and 627 nM (input ligand: none).
As for “GAGAGACGAUUAGGAUAUACGGUGAUAAUGAUAGUAGAAGGAAUUGACAUGAGGAUCACCCAUGUAGGAAUAAUCCAGAGAGAG [Parity 26 - Jieux - Same State NG 1] (Eterna round: R96, puzzle: Same State NG 1)”, the “apparent KD of MS2 coat protein” value (input ligand: FMN 200 uM) was 81.2 nM, the “apparent KD of MS2 coat protein” value under setting [1] turned out to be 93.2 nM and the “apparent KD of MS2 coat protein” value (input ligand: none) stood at 86.8 nM.
In the same order, the values of “GAGAGAUGGUUAGGAUAUUCGGUGAUAAUGAUAGAAGAAGGAACUGACAUGAGGAUCACCCAUGUGGGAAUAAUCCAGAGAGAG [Parity 20 - Jieux - Same State NG 1] (Eterna round: R96, puzzle: Same State NG 1)” are 103 nM, 85 nM and 107 nM.
For “GAGCCAGUCCGAGGAUAUUCAUAUAAAUUAAAUACAUGAGGAUCACCCAUGUAGGCGGAGCCUUGGGAGAAGGCGGACUGGCUC [Xeonanisa>>5] (Eterna round: R96, puzzle: Same State NG 2)” the same measures were 22.7 nM, 35.9 nM and 58.4 nM.
On to “GAGCCAGUCCGAGGAUAUUCAUAUUACAUGAGGAUCACCCAUGUAGGCUCAGAAAAGGAGCCUUGGGAGAAGGCGGACUGGCUC [Xeonanisa<<3] (Eterna round: R96, puzzle: Same State NG 2)”, for which the “apparent KD of MS2 coat protein” value is, setting by setting: (input ligand: FMN 200 uM) 13.4 nM; under setting [1], 153 nM; (input ligand: none) 217 nM.
For “GAGGGACAGACCAACAUGAGGAUCACCCAUGUCCUCGCAGGUCAGGAUAUUAUGAGGAUCACCCGUGAGAAGGGACGGUGAACC (Eterna round: R96, puzzle: Same State NG 3)”, the “apparent KD of MS2 coat protein” value reads like this: (input ligand: FMN 200 uM) 606 nM; under setting [1], 468 nM; (input ligand: none) 488 nM.
